From patent US20210253692A1 (GALAPAGOS, published 2021) come the findings set out here.

The data set concerns the molecule itself. Nature of the data set: dynamic light scattering in phosphate buffered saline; self-interaction of the antibody.

B1: MAB#1 (antibody, human IgG1, lambda, V domains shown)
VH: EVQLLESGGGLVQPGGSLRLSCAASGFTVSDYAMHWVRQAPGKGLEWVSYIGGVGEGTQYAESVKGRFTISRDNSKNTLYLQMNSLRAEDTAVYYCARGFAIRYYGFDYWGQGTLVTVSS
VL: SYELTQPPSVSVSPGQTASITCSGDKLGDKYAYWYQQKPGQSPVLVIYQDSKRPSGIPERFSGSNSGNTATLTISGTQAEDEADYYCQVFTFPLVTTVFGGGTKLTVLG
notes: also called IL-17C antibody; anti-IL-17C antibody
With B1, the “kD (diffusion interaction parameter)” value was -23.6 mL/g.
